Numbering of substitutions follows the chain as printed.
B1: Z002 (MEX18_27) (antibody, V domains shown)
VH: EVQLLESGGGLVQPGGSLRLSCATSGFTFSTYAMSWVRQAPGKGLEWVSSFSGVDDSTYYAESVKGRFTISRDNSKNTVYLQMTRLRAEDTAVYYCAKDRGPRGVGELFDSWGQGTLVTVSS
VL: DIQMTQSPSTLSASVGDRVTMTCRASQSINRWLAWYQQKPGKAPKLLIYTTSTLKSGVPSRFSGSGSGTEFTLTISSLQPDDFATYYCQHFHSVPWTFGQGTKVEIK
B2: Z034 (BRA112_09) (antibody, V domains shown)
VH: EVQLLESGGGLAQPGGSLRLSCETSGFTFRSYGMGWVRQAPGKGLEWVSSIYISGDSTYYAASVKGRFTISRDNSKSTLYLQMDRLTAEDTAVYYCVRDRIQGGFGELYRYWGQGTLVTVSS
VL: B1 VL with I29V, R31K, T50E, T53I, K55E, P59S, F91Y, S93G, V94Y
B3: Z036 (BRA112_91) (antibody, V domains shown)
VH: EVQLLESGGDLVQPGGSLRLSCAASGFTFSTYGMAWVRQAPGKGLEWLSSISSVDDSKYYAASVKGRFTISRDNSRNTLYLHMNSLRVDDTAVYYCAKDRIPHGLGELYANWGQGTLVTVSS
VL: DIQMTQSPSTLSASVGDRVTITCRASQSISGWLAWYQQKPGKAPRLLMHKASNLYSGVPSRFSGSGSGTEFTLTISSLQPDDFATYYCQHYHSYPYTFGQGTKVEIK
B4: Z003 (MEX18_58) (antibody, V domains shown)
VH: EVQLLESGGGLVQPGGSLRLSCATSGFTFTTFAMSWVRQAPGKGLEWVSSISGADDSTYYAASVKGRFTISRDNSRSTLFLQMNSLRAEDTAVYYCAKDRGPRGVGELFDSWGQGTLVTVSS
VL: B1 VL with M21I, N30S, R31K, K45R, H92F
B5: Z050 (BRA138_28) (antibody, V domains shown)
VH: QVQLVQSGAEVKKPGSSVKVSCKAPGGTFSRYSIAWVRQAPGQGLEWMGGINPTFTTPNYAQKFQGRVTITADESTNTAYLDLSSLRSEDTAVYYCARFRYYYESGGYSDASPYYLDYWGQGTLVTVSS
VL: EIVLTQSPATLSLSPGERVTLSCRASQSVSSYLAWYQQKPGQAPRLLIYDASNRATGIPARFTGSGSGTDFTLTISSLEPEDFAVYYCQQRSNWPLTFGGGTKVEIK
B6: Z051 (BRA138_59) (antibody, V domains shown)
VH: QVQLQESGPGLVKPSQTLSLTCTVSGVSISSGGYYYSWFRQLPGKGLEWIGHIYYTGNTHYNPSLRSRLTISVDTSKNQFSLKLSSVTAADTARYYCARAWCEYAAYCWFDPWGRGTLVTVSS
VL: EIVLTQSPGTLSLSPGERATLSCRASQSVTSSYLAWYQHKPGQAPRLLIYGASSRAPGIPDRFSGSGSGTDFTLTISRLEPEDFAVYWCQQYGRSPFTFGQGTKLEIK
B7: Z052 (BRA138_62) (antibody, V domains shown)
VH: QVQLQESGPGLVKPSQTLSLTCTVSGGSITGGVYYWNWIRHHPGKGLEWIGYMFYSGDTDYNPSLRSRVTISGDTSKNKFSLNLNSVTAADTAVYYCARAGFDYGSPVSAFDIWGQGTLVTVSS
VL: EIVLTQSPATLSLSPGERATLSCRASQSVSSTYLVWYQQKPGQAPRLLIYGASSRATGIPDRFSGSGSGTDFTLTISRLEPEDFAVYFCQQYAHSPRGYTFGQGTKLEIK
B8: Z053 (BRA138_65) (antibody, V domains shown)
VH: QLQLQESGPGLVKPSETLSLTCTVSGGSISSYNYYWGWIRQPPGKGLEFIGSIYYTGSTYYNPSLRSRVTISVDTSKNQFSLKLTSVTAADTAVYYCARHGPGMGHNWYFDLWGRGTLVTVSS
VL: EIVLTQSPATLSLSPGERATLSCRASQSISSYLAWYQQKPGQAPRLLIYDASNRAPGIPARFSGSGSGTDFTLTISSLEPEDFAVYYCQQRSTWLTFGGGTKVEIK
B9: Z055 (MEX84_p4-61) (antibody, V domains shown)
VH: EVQLVQSGAEVKKPGASVKVSCKASGYTFSGYYIHWLRQAPGQGLEWMGWINSNSGGADSGPRFHGRVTMTRDTSINTAYLELTNLRSDDTAVYYCARRTYYDTRFPYWYFDLWGRGTLVTVSS
VL: AIRMTQSPSSLSASVGDRVTITCRASQDIGSYLNWYQQKPGKAPNVLISAASTLQSGVPSRISGIGSGTDFTLTISSLQPEDFATYYCQQSLSAPYTFGQGTKLEIK
B10: Z056 (MEX84_p2-94) (antibody, V domains shown)
VH: EVQLVQSGAEVKKPGASVKVSCKASGNTFMGYYFHWVRQAPGQGLEWMGWINPNSGHANIAQTFQGRVTMTRDPSITTAYMELSRLRSDDTAVFYCARGGMLGQLWALDNWGQGTLVTVSS
VL: DIQMTQSPSTLSASVGDRVTITCRASQSISHWLAWYQQRPGEAPKLLIYQASTLESGVPSRFSGSGSGTEFTLSISSLQPDDFATYYCQQYQSSPYTFGQGTKLEIK
B11: Z057 (MEX84_p4-54) (antibody, V domains shown)
VH: EVQLVQSGAEVKRPGASVKVSCKASGYTFADYYIHWVRQAPGLGLEWMGWINPKTGFSHYEQTFQGRVTMARDTSIPAAYMELSSLKSDDTAIYYCARGGRINVAEALRYWGQGSLVTVSS
VL: DIQMTQSPSTLSTFVGDRVTITCRASQTIGDWLAWYQQKPGKAPKLLISKATRLESGVPSRFSGSGSETEFSLTINSLQPDDVAAYYCQQYMSYPWTFGQGTKLEIK
B12: Z059 (MEX84_p4-34) (antibody, V domains shown)
VH: EVQLVQSGAEVKTPGSSVKVSCKTSGGTFSNFAITWVRQAPGQGLEWMGGIIPLFGITNYTQKFQGRVTITTDESKTTAYMDLSGLRSEDTAVYFCARGRDSSGRLLDHWGQGTLVTVSS
VL: EIVMTQSPATLSVSPGERATLSCRASQTVNRNLAWYQQKPGQAPRLLIYAASARATGVPARFSGSGSGTEFTLTISSLQSEDFVVYYCQQYNNWPPLTFGGGTKLEIK
B13: Z005 (MEX18_13) (antibody, V domains shown)
VH: EVQLLESGGGLVQPGGSLRLSCAASGFTFSSYAMSWVRQAPGKGLEWVSSFSGIDDSTWYADSVKGRFTISRDNSKSTLYLQMNSLRAEDTAVYYCAKDRLVRGFAEVLDYWGRGTLVTVSS
VL: DIQMTQSPSSLSASVGDRVTITCRASQDISKYLAWYQQRPGKVPNLLIYTASTLQSGVPSRFSGSGSGTHFTLTISSLQPEDVATYYCQKYNSVPWTFGQGTKVEIK
B14: Z061 (BRA112_36) (antibody, V domains shown)
VH: EVQLVESGGGVVQPGRSLRLSCAASGFTFSISTIHWVRQAPGKGLEYVVVISHDGNTKYYADSVKGRFIISRDNSKNTVFLQMNSLRPVDTAVYYCARGEVGYFDLWGRGTLVTVSS
VL: EIVLTQSPATLSLSPGERATLSCRASQSVSSFLAWYQQKPGQPPRLLIYDASTRATGIPARFSGSGSGTDFTLTISSLEPEDFAVYYCQQRSNWPPITFGQGTRLEIK
B15: Z062 (BRA112_70) (antibody, V domains shown)
VH: EVQLVESGGGVVQPGRSLRLSCAASGFSFSSHAMYWVRQAPGKGLEWVAIVSYDGSTKNYADSVKGRFTISRDNSKNTIYLHLNSLRAEDTAVYFCAREVDGIYGYLHYWGQGTLVTVSS
VL: EIVLTQSPATLSLSPGERATLSCRARQNVRNFLAWYQQKPGQAPRLLIYDASNRATDIPARFSGSGSGTDFTLTISSLEPEDFAVYYCQQRSYSITFGQGTRLEIK
B16: Z007 (MEX105_50) (antibody, V domains shown)
VH: EVQLLESGGGLVRPGGSLRLSCTASGFTFRRYAMAWVRQAPGKGLEWVSLIYDGDDSTYYAKSVKGRFAISRDNSKNTLSLQMNSLRAEDTAVYYCVKDRDNGWSSIVDWGQGTLVTVSS
VL: DIQMTQSPSTLSASVGDRVTITCRASHSISGWLAWYQQKPGKAPKLLIYQASILESGVPSRFSGSGSGTEFTLTIGSLQPEDFATYFCQQYSTFWTFGQGTKVEIK
B17: Z008 (MEX105_60) (antibody, V domains shown)
VH: B16 VH with Y32F, Y52W, D53N, K62E, K65R, A69T, K76H, N84R, V93I
VL: B16 VL with H27Q, S28T, S30G, G31N, I53V, G76S
B18: Z009 (MEX105_64) (antibody, V domains shown)
VH: B16 VH with D53N, K62E, A69T, I70V, K76Q, V93I, K98R
VL: B16 VL with H27R, S28T, S30G, G31S, S56G, G66V, G76R
B19: Z011 (MEX105_15) (antibody, V domains shown)
VH: EVQLLESGGGLVQPGGSLRLSCAASGFTFRTYAMSWVRQPPGKGLEWVSSISAREDSTYFAASVRGRFTISRDNSKNTLYLQMNNLRAEDTALYYCAKDRLQLGVGELYESWGQGTLVTVSS
VL: B1 VL with M21I, S28N, R31S, T50M, T51A, T53S, K55Q, I75V, F91Y, V94Y
B20: Z004 (MEX18_89) (antibody, V domains shown)
VH: EVQLLESGGGLVQPGGSLRLTCATSGFTFRDYAMSWVRQAPGKGLEWVSSYSGIDDSTYYADSVKGRFTISRDNSKSTLSLHMNSLRAEDSALYFCAKDRGPRGVGELFDSWGQGTLVTVSS
VL: B1 VL with M21I, N30S, R31K, H92Y
B21: Z016 (MEX84_p2-55) (antibody, V domains shown)
VH: QVQLVQSGAEVKKPGASVKLSCKASGYTFTSYYVHWVRQAPGQGLEWMGIINPGNNFVSFAQNFYDRATMTRDTSTNTVYMELTNLQSEDTAVYYCARTLVAPSAQSMYYFDFWGQGTLVTVSS
VL: EIVLTQSPGTLSLSPGERGTLSCRASQYITTGHFAWYQQKPGRAPRLLIYGASVRATGVPDRFSGSGAETDFTLTISRLDPEDVGVYYCQQYGSSPVTFGPGTKVDIK

How the values were obtained:
[1] = target: T1, ZIKV envelope domain III ([..]), polyhistidine-AviTag, made in HEK-293-6E cells (Zika virus (KJ776791)); experiment: ELISA on ZIKV EDIII (Table A); settings: remark: other sources report otherwise
[2] = target: T1, ZIKV envelope domain III ([..]), …; experiment: ELISA, biotinylated Z004 on ZEDIII, streptavidin-HRP; settings: remark: other sources report otherwise

Row | Binder | EC50 [1] [µg/mL] | EC50 [2] [µg/mL]
1 | B1 | 0.0252 | –
2 | B2 | 0.0235 | –
3 | B3 | 0.0172 | –
4 | B4 | 0.0255 | –
5 | B5 | 0.0303 | –
6 | B6 | 1.86 | –
7 | B7 | 0.0131 | –
8 | B8 | 1.68 | –
9 | B9 | 1.88 | –
10 | B10 | 0.982 | –
11 | B11 | 0.0828 | –
12 | B12 | 0.61 | –
13 | B13 | 0.216 | –
14 | B14 | 0.311 | –
15 | B15 | 0.208 | –
16 | B16 | 0.0346 | –
17 | B17 | 0.0326 | –
18 | B18 | 0.0284 | –
19 | B19 | 0.038 | –
20 | B20 | – | 0.16
21 | B21 | 0.0724 | –

From US20220306729A1
